Target: T1, Flag-tagged Pds5b-Ser1177,1182,1209Ala (3A) phosphorylated by Cdk1/2-cyclin A2 (human, UniProt Q9NTI5 1-1447, Ser1177,1182,1209Ala | Ser1177,1182,1209Ala | Ser1177,1182,1209Ala, phosphoserine at 1161 and 1166 (by Cdk1/2-cyclin A2))
T1 construct: Pds5b, human; also called Pds5b-3A
T1 sequence (looked up): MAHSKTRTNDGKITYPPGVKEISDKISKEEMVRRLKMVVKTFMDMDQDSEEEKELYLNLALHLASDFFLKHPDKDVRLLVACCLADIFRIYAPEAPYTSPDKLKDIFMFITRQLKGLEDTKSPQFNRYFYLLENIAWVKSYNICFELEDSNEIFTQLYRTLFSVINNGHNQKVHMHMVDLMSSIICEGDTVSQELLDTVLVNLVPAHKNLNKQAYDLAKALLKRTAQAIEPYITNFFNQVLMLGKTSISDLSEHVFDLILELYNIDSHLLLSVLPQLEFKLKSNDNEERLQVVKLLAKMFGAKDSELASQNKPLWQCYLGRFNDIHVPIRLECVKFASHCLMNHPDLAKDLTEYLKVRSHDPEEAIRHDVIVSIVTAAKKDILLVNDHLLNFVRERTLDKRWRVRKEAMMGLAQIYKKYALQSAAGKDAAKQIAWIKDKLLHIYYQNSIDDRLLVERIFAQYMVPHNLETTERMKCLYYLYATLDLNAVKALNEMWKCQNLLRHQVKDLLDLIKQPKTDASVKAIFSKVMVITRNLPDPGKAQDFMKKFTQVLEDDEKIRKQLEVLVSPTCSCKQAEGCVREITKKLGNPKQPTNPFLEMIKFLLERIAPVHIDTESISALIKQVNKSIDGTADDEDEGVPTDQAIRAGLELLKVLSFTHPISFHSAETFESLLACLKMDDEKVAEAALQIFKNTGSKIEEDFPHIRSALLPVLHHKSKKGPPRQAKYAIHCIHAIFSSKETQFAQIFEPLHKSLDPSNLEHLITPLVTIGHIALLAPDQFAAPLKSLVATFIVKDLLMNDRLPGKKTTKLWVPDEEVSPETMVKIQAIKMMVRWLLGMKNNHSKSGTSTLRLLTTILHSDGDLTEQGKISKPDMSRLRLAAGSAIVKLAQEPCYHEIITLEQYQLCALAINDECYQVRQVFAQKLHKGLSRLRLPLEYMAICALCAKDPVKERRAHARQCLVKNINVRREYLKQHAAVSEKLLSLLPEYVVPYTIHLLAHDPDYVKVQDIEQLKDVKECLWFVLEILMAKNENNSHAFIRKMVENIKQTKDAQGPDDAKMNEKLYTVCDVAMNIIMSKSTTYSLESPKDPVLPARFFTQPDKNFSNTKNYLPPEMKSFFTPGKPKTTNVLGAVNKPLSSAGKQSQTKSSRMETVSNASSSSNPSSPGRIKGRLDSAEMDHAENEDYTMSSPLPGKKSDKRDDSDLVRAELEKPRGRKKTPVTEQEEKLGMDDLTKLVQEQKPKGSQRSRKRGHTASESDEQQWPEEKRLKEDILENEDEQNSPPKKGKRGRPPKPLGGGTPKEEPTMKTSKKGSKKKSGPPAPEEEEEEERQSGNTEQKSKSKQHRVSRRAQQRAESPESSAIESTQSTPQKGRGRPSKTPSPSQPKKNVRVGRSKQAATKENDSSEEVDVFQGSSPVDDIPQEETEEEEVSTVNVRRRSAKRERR
Assay: pull-down; Flag-Pds5b variants affinity-purified from Nek2a- and cyclin A2-free prometaphase cells, incubated on the beads with recombinant Nek2a and/or Cdk1/2-cyclin A2 and ATP, washed, then incubated with recombinant Wapl (2 µl) and sororin (0.3 µg) in 15 µl cleavage buffer without ATP, 20 min at 37 °C; immunoblotting
Details: both partners purified

- binding result: binds
B1: recombinant human Wapl (natural protein, UniProt Q7Z5K2 1-1190, looked up)
chain: MTSRFGKTYSRKGGNGSSKFDEVFSNKRTTLSTKWGETTFMAKLGQKRPNFKPDIQEIPKKPKVEEESTGDPFGFDSDDESLPVSSKNLAQVKCSSYSESSEAAQLEEVTSVLEANSKISHVVVEDTVVSDKCFPLEDTLLGKEKSTNRIVEDDASISSCNKLITSDKVENFHEEHEKNSHHIHKNADDSTKKPNAETTVASEIKETNDTWNSQFGKRPESPSEISPIKGSVRTGLFEWDNDFEDIRSEDCILSLDSDPLLEMKDDDFKNRLENLNEAIEEDIVQSVLRPTNCRTYCRANKTKSSQGASNFDKLMDGTSQALAKANSESSKDGLNQAKKGGVSCGTSFRGTVGRTRDYTVLHPSCLSVCNVTIQDTMERSMDEFTASTPADLGEAGRLRKKADIATSKTTTRFRPSNTKSKKDVKLEFFGFEDHETGGDEGGSGSSNYKIKYFGFDDLSESEDDEDDDCQVERKTSKKRTKTAPSPSLQPPPESNDNSQDSQSGTNNAENLDFTEDLPGVPESVKKPINKQGDKSKENTRKIFSGPKRSPTKAVYNARHWNHPDSEELPGPPVVKPQSVTVRLSSKEPNQKDDGVFKAPAPPSKVIKTVTIPTQPYQDIVTALKCRREDKELYTVVQHVKHFNDVVEFGENQEFTDDIEYLLSGLKSTQPLNTRCLSVISLATKCAMPSFRMHLRAHGMVAMVFKTLDDSQHHQNLSLCTAALMYILSRDRLNMDLDRASLDLMIRLLELEQDASSAKLLNEKDMNKIKEKIRRLCETVHNKHLDLENITTGHLAMETLLSLTSKRAGDWFKEELRLLGGLDHIVDKVKECVDHLSRDEDEEKLVASLWGAERCLRVLESVTVHNPENQSYLIAYKDSQLIVSSAKALQHCEELIQQYNRAEDSICLADSKPLPHQNVTNHVGKAVEDCMRAIIGVLLNLTNDNEWGSTKTGEQDGLIGTALNCVLQVPKYLPQEQRFDIRVLGLGLLINLVEYSARNRHCLVNMETSCSFDSSICSGEGDDSLRIGGQVHAVQALVQLFLERERAAQLAESKTDELIKDAPTTQHDKSGEWQETSGEIQWVSTEKTDGTEEKHKKEEEDEELDLNKALQHAGKHMEDCIVASYTALLLGCLCQESPINVTTVREYLPEGDFSIMTEMLKKFLSFMNLTCAVGTTGQKSISRVIEYLEHC
notes: Wapl, human; insert by PCR on human cDNA; Isolated from mitotically arrested cells; also called GFP-SUMOstar-Wapl; source: Hek293T, transiently transfected, taxol-arrested; not shown: GFP, N-terminal, cleaved; SUMOstar, N-terminal, cleaved
